Experimental data published in article PMC3267046, “Structure of Ddn, the Deazaflavin-Dependent Nitroreductase from Mycobacterium tuberculosis Involved in Bioreductive Activation of PA-824” (Structure(London, England:1993), 2012).

Biological target: the molecule itself
Test: SEC

Row | Protein | binding result
1 | MBP-Ddn fusion protein, full-length wild-type deazaflavin-dependent nitroreductase (Ddn, Rv3547) fro (enzyme, also called WT MBP-Ddn) MPKSPPRFLNSPLSDFFIKWMSRINTWMYRRNDGEGLGGTFQKIPVALLTTTGRKTGQPRVNPLYFLRDGGRVIVAASKGGAEKNPMWYLNLKANPKVQVQIKKEVLDLTARDATDEERAEYWPQLVTMYPSYQDYQSWTDRTIPIVVCEP | binds
2 | Untagged wild-type Ddn (full length), produced by proteolytic removal of MBP (enzyme, also called Untagged Ddn; untagged WT Ddn) MPKSPPRFLNSPLSDFFIKWMSRINTWMYRRNDGEGLGGTFQKIPVALLTTTGRKTGQPRVNPLYFLRDGGRVIVAASKGGAEKNPMWYLNLKANPKVQVQIKKEVLDLTARDATDEERAEYWPQLVTMYPSYQDYQSWTDRTIPIVVCEP | binds
